According to patent publication US7514215B2, “Sulfotransferase SULT2A1 sequence variants” (Mayo Foundation for Medical Education and Research, priority 2001, dated 2009):
Where a chain is given by its changes, count along the chain named. Like-named read-outs stand apart in the source and are kept apart here.

Tested on: SULT2A1
Assay: SULT2A1 enzyme activity assay: sulfate conjugation of DHEA with 35S-PAPS, COS-1 cytosol preparations of recombinant allozymes
Type: biochemical, human
Conditions: for Enzyme Activity (%): percentage of WT SULT2A1 enzyme activity, 5 μM DHEA, 0.4 μM 35S-PAPS, COS-1 cytosol, corrected for transfection efficiency; for Enzyme activity: immunoreactive protein: ratio of enzymatic activity to immunoreactive protein; for decrease in enzyme activity: reduction relative to wild type
Description: Activity of SULT2A1 polypeptides can be altered relative to the reference SULT2A1 polypeptide. […] Other allozymes can have increased activity relative to the reference SULT2A1 polypeptide. Activity of SULT2A1 polypeptides can be assessed in vitro using a sulfate acceptor substrate such as DHEA and a donor sulfate molecule such as PAPS. In general, recombinant SULT2A1 polypeptides can be incubated at 37° C. with 0.4 μM ^35S-PAPS and 5 μM DHEA in a potassium phosphate buffer (5 mM, pH 6.5). Reactions can be stopped by precipitating PAPS and SULT2A1 polypeptide (e.g., with barium hydroxide, barium acetate, and zinc sulfate). After centrifugation of the reaction, radioactivity in the supernatant is assessed. SULT2A1 activity is expressed as nmoles of sulfate conjugated product formed per hour of incubation. See, Campbell, N. R. C. et al., Biochem. Pharmacol., 36:1435-1446 (1987).
COS-1 cell expression: Five different SULT2A1 expression constructs were made using the pCR3.1 expression vector. Four of the constructs were designed to express SULT2A1 allozymes, while the remaining construct was designed to express a wild type SULT2A1 polypeptide. All SULT2A1 cDNA sequences containing SULT2A1 nucleotide sequence variants used to create the expression constructs were created by site directed mutagenesis using the method described by Ho et al., Gene 77(1):51-9 (1989). Each SULT2A1 cDNA was amplified by PCR and subcloned into the eukaryotic expression vector pCR3.1 (Promega, Madison, Wis.). After subcloning, all inserts were sequenced to assure that no spurious nucleotide point mutations had been introduced during the PCR amplifications. […] As a control, a transfection was also performed with “empty” pCR3.1, i.e., vector lacking an insert, to make it possible to correct for endogenous COS-1 cell SULT activity. The control plasmid pSV-β-galactosidase (Promega) was cotransfected with each SULT2A1 construct to make it possible to correct for transfection efficiency. Two independent transfections, each consisting of three separate plates, were performed with each of the expression constructs.
After 48 hours in culture, the transfected cells were harvested and high speed supernatant (HSS) cytosol preparations were prepared as described by Wood, T. C. et al., Biochem. Biophys. Res. Commun., 198:1119-1127 (1994). Aliquots of these cytosol preparations were stored at −80° C. prior to assay.
Enzyme Assays: β-galactosidase activity in each of the COS-1 HSS preparations was measured with the β-galactosidase Enzyme Assay System (Promega, Madison, Wis.). These HSS preparations of recombinant SULT2A1 allozymes were used for the activity studies without any further purification. The protein concentration of each recombinant protein preparation was determined by the dye-binding method of Bradford with bovine serum albumin (BSA) as a standard.
SULT2A1 enzyme activity was measured with an assay that involves sulfate conjugation of a sulfate acceptor substrate, DHEA, in the presence of the sulfate donor 3′-phosphoadenosine-5′-phosphosulfate (PAPS). See, Campbell, N. R. C. et al., Biochem. Pharmacol., 36:1435-1446 (1987). Briefly, 0.4 μM ^35S-PAPS and a HSS preparation were reacted with 5 μM DHEA in 5 mM potassium phosphate buffer at pH 6.5. […] Cytosol from COS-1 cells that had been transfected with empty pCR3.1 was used to correct for endogenous SULT activity. Because SULTs display profound substrate inhibition, DHEA concentrations that ranged from 100 pM to 1 mM were tested with each recombinant allozyme to ensure that the assays were performed at DHEA concentrations that yielded maximal activity for that allozyme. Enzyme activity was expressed as nanomoles (nmoles) of sulfate conjugated product formed per hour of incubation. Apparent Km values for PAPS were determined in the presence of 5 μM DHEA with six PAPS concentrations that varied from 0.0625 μM to 2 μM. […]

[1] = apparent Km for DHEA, read-out: DHEA Km
[2] = apparent Km for PAPS in the presence of 5 μM DHEA, read-out: PAPS Km

B1: Ala63Pro: SULT2A1 allozyme having a proline at amino acid residue 63 in place of alanine (protein, UniProt Q06520 1-285, looked up, variant A63P)
Sulfotransferase 2A1: MSDDFLWFEGIAFPTMGFRSETLRKVRDEFVIRDEDVIILTYPKSGTNWLAEILCLMHSKGDPKWIQSVPIWERSPWVESEIGYTALSETESPRLFSSHLPIQLFPKSFFSSKAKVIYLMRNPRDVLVSGYFFWKNMKFIKKPKSWEEYFEWFCQGTVLYGSWFDHIHGWMPMREEKNFLLLSYEELKQDTGRTIEKICQFLGKTLEPEELNLILKNSSFQSMKENKMSNYSLLSVDYVVDKAQLLRKGVSGDWKNHFTVAQAEDFDKLFQEKMADLPRELFPWE
activity relative to the reference SULT2A1 polypeptide (in words): reduced activity
Km [1]: 0.21 ± 0.01 µM
Km [2]: 0.0082 ± 0.00132 µM
Enzyme Activity (%): 57%
Enzyme activity: immunoreactive protein: 2.1
decrease in enzyme activity: 43%

B2: Lys227Glu: SULT2A1 allozyme having a glutamate at amino acid residue 227 in place of a lysine (protein, UniProt Q06520 1-285, looked up, variant K227E)
Sulfotransferase 2A1: B1 Sulfotransferase 2A1 with P63A, K227E
activity relative to the reference SULT2A1 polypeptide (in words): reduced activity
Km [1]: 0.905 ± 0.053 µM
Km [2]: 0.0102 ± 0.00096 µM
Enzyme Activity (%): 15%
Enzyme activity: immunoreactive protein: 7.5

B3: Ala261Thr: SULT2A1 allozyme having a threonine at amino acid 261 in place of an alanine (protein)
chain: B1 Sulfotransferase 2A1 with P63A, T90S, A261T
activity relative to the reference SULT2A1 polypeptide (in words): comparable to the reference SULT2A1 polypeptide
Km [1]: 0.245 ± 0.012 µM
Km [2]: 0.0227 ± 0.00062 µM
Enzyme activity: immunoreactive protein: 1.2
decrease in enzyme activity: 85%

B4: WT: recombinant wild type (reference) human SULT2A1 polypeptide, SEQ ID NO:3, expressed in COS-1 cells (protein, listed as Homo Sapiens)
chain: B1 Sulfotransferase 2A1 with P63A, T90S
Km [1]: 0.247 ± 0.071 µM
Km [2]: 0.0218 ± 0.00086 µM
Enzyme Activity (%): 100%
Enzyme activity: immunoreactive protein: 1.0

B5: 63Pro/261Thr: SULT2A1 polypeptide with a proline at position 63 and a threonine at position 261 (double variant) (protein, UniProt Q06520 1-285, looked up, variant A63P A261T)
Sulfotransferase 2A1: B1 Sulfotransferase 2A1 with A261T
activity relative to the reference SULT2A1 polypeptide (in words): reduced activity
Km [1]: 0.29 ± 0.012 µM
Km [2]: 0.0114 ± 0.0003 µM
Enzyme Activity (%): 42%
Enzyme activity: immunoreactive protein: 1.6
